Values joined by “and” are separate entries in the source; they are usually repeats but may differ in a detail not shown here. Equal entries are not always repeated.
Biological target: the molecule itself
Test: cryo-EM structure; P22 procapsids (upper CsCl band) from infected S. typhimurium, in phage buffer (10 mM Tris-HCl, 1 mM MgCl2, pH 7.4); symmetry-mismatch reconstruction at about 9 Å and local reconstructions (portal 3.0 Å with C12, nodules 4.9 Å, SP trimer 6.9 Å, SP tetramer 6.9 Å, C-loop 6.7 Å); AlphaFold2 model of gp8 fitted into the maps

B1: bacteriophage P22 scaffolding protein gp8 (natural protein, UniProt P26748 1-303, looked up)
chain: MEPTTEIQATEDLTLSGDHAAASADSLVVDNANDNAGQEEGFEIVLKDDETAPKQDPAKNAEFARRRIERKRQRELEQQMEAVKRGELPESLRVNPDLPPQPDINAYLSEEGLAKYDYDNSRALAAFNAANTEWLMKAQDARSNAVAEQGRKTQEFTQQSAQYVEAARKHYDAAEKLNIPDYQEKEDAFMQLVPPAVGADIMRLFPEKSAALMYHLGANPEKARQLLAMDGQSALIELTRLSERLTLKPRGKQISSAPPADQPITGDVSAANKDAIRKQMDAAASKGDVETYRKLKAKLKGIR
notes: scaffolding protein gp8 of bacteriophage P22, 303 amino acid residues, 33.6 kDa; domains: N-loop 1-57, base 58-84 and 163-245, column 85-162, C-loop 246-267, hook 268-303; the N-loop was not resolved; Native protein within the procapsid; About 250-300 copies per procapsid, from cited work; also called SP; P22 SP; source: phage P22 propagated in S. typhimurium; inside procapsids purified by CsCl …
  stoichiometry N: 2 and 3 and 4

Reference: PMC12005531, “Structure of the scaffolding protein and portal within the bacteriophage P22 procapsid provides insights into the self-assembly process” (PLOS Biology, 2025)
